Data: the supplement of paper PMC11246515
± gives the standard deviation of the averaged measurements.

Assay: total protein half-life in vivo (active degradation + dilution); higher = more stable protein
[1] = E. coli NCM3722 delta-clpP delta-lon delta-hslV, growth: N-lim chemostat, doubling time 6 h
[2] = E. coli NCM3722 delta-clpP, growth: N-lim chemostat, doubling time 6 h
[3] = E. coli NCM3722 delta-hslV, growth: N-lim chemostat, doubling time 6 h
[4] = E. coli NCM3722 delta-lon, growth: N-lim chemostat, doubling time 6 h
[5] = E. coli NCM3722 delta-smpB, growth: N-lim chemostat, doubling time 6 h
[6] = wild type E. coli NCM3722, growth: C-lim chemostat, doubling time 3 h
[7] = wild type E. coli NCM3722, growth: C-lim chemostat, doubling time 6 h
[8] = wild type E. coli NCM3722, growth: C-lim chemostat, doubling time 12 h
[9] = wild type E. coli NCM3722, growth: N-lim chemostat, doubling time 6 h
[10] = wild type E. coli NCM3722, growth: N-lim chemostat, doubling time 12 h
[11] = wild type E. coli NCM3722, growth: P-lim chemostat, doubling time 6 h
[12] = wild type E. coli NCM3722, growth: P-lim chemostat, doubling time 12 h

Sequence: MSERLSITPLGPYIGAQISGADLTRPLSDNQFEQLYHAVLRHQVVFLRDQAITPQQQRALAQRFGELHIHPVYPHAEGVDEIIVLDTHNDNPPDNDNWHTDVTFIETPPAGAILAAKELPSTGGDTLWTSGIAAYEALSVPFRQLLSGLRAEHDFRKSFPEYKYRKTEEEHQRWREAVAKNPPLLHPVVRTHPVSGKQALFVNEGFTTRIVDVSEKESEALLSFLFAHITKPEFQVRWRWQPNDIAIWDNRVTQHYANADYLPQRRIMHRATILGDKPFYRAG
- total protein half-life in vivo [1]: 4.38 ± 0.24 h
- total protein half-life in vivo [2]: 4.17 ± 3.1 h
- total protein half-life in vivo [3]: 2.39 ± 0.83 h
- total protein half-life in vivo [4]: 2.1 h
- total protein half-life in vivo [5]: 2.36 ± 0.22 h
- total protein half-life in vivo [6]: 2.88 ± 0.46 h
- total protein half-life in vivo [7]: 4.02 h
- total protein half-life in vivo [8]: 5.19 ± 0.73 h
- total protein half-life in vivo [9]: 1.58 h
- total protein half-life in vivo [10]: 2.31 ± 0.34 h
- total protein half-life in vivo [11]: 4.3 h
- total protein half-life in vivo [12]: 7.36 ± 0.57 h

Sequence: MDALSRLLMLNAPQGTIDKNCVLGSDWQLPHGAGELSVIRWHALTQGAAKLEMPTGEIFTLRPGNVVLLPQNSAHRLSHVDNESTCIVCGTLRLQHSARYFLTSLPETLFLAPVNHSVEYNWLREAIPFLQQESRSAMPGVDALCSQICATFFTLAVREWIAQVNTEKNILSLLLHPRLGAVIQQMLEMPGHAWTVESLASIAHMSRASFAQLFRDVSGTTPLAVLTKLRLQIAAQMFSRETLPVVVIAESVGYASESSFHKAFVREFGCTPGEYRERVRQLAP
- total protein half-life in vivo [3]: 6.33 h
- total protein half-life in vivo [4]: 6.04 h
- total protein half-life in vivo [5]: 5.156 ± 0.014 h
- total protein half-life in vivo [7]: 5.12 ± 3.4 h
- total protein half-life in vivo [8]: 11.8 ± 2.5 h
- total protein half-life in vivo [9]: 5.92 ± 0.51 h
- total protein half-life in vivo [11]: 5.4 ± 0.16 h
- total protein half-life in vivo [12]: 12.4 ± 1.3 h

Sequence: MYHDVSYLLSRLINGPLSLRQIYFASSNGPVPDLAYQVDFPRLEIVLEGEFVDTGAGATLVPGDVLYVPAGGWNFPQWQAPATTFSVLFGKQQLGFSVVQWDGKQYQNLAKQHVARRGPRIGSFLLQTLNEMQMQPQEQQTARLIVASLLSHCRDLLGSQIQTASRSQALFEAIRDYIDERYASALTRESVAQAFYISPNYLSHLFQKTGAIGFNEYLNHTRLEHAKTLLKGYDLKVKEVAHACGFVDSNYFCRLFRKNTERSPSEYRRQYHSQLTEKPTTPE
- total protein half-life in vivo [1]: 5.77 ± 0.063 h
- total protein half-life in vivo [2]: 3.94 h
- total protein half-life in vivo [3]: 4.1 h
- total protein half-life in vivo [4]: 5.72 ± 1.3 h
- total protein half-life in vivo [5]: 4.21 ± 0.49 h
- total protein half-life in vivo [6]: 2.6 h
- total protein half-life in vivo [7]: 6.09 ± 1.5 h
- total protein half-life in vivo [8]: 8.5207 ± 0.0056 h
- total protein half-life in vivo [9]: 3.8 ± 0.55 h
- total protein half-life in vivo [10]: 6.04 h
- total protein half-life in vivo [11]: 3.26 h
- total protein half-life in vivo [12]: 5.79 ± 0.83 h

Sequence: MDQAGIIRDLLIWLEGHLDQPLSLDNVAAKAGYSKWHLQRMFKDVTGHAIGAYIRARRLSKSAVALRLTARPILDIALQYRFDSQQTFTRAFKKQFAQTPALYRRSPEWSAFGIRPPLRLGEFTMPEHKFVTLEDTPLIGVTQSYSCSLEQISDFRHEMRYQFWHDFLGNAPTIPPVLYGLNETRPSQDKDDEQEVFYTTALAQDQADGYVLTGHPVMLQGGEYVMFTYEGLGTGVQEFILTVYGTCMPMLNLTRRKGQDIERYYPAEDAKAGDRPINLRCELLIPIRR [P0ACI0]
- total protein half-life in vivo [1]: 5.25 ± 0.62 h
- total protein half-life in vivo [2]: 5.39 ± 0.29 h
- total protein half-life in vivo [3]: 5.7 ± 1.1 h
- total protein half-life in vivo [4]: 5.49 ± 0.38 h
- total protein half-life in vivo [5]: 5.37 ± 0.28 h
- total protein half-life in vivo [6]: 2.92 ± 0.065 h
- total protein half-life in vivo [7]: 6.47 ± 0.27 h
- total protein half-life in vivo [8]: 11.3 ± 0.12 h
- total protein half-life in vivo [9]: 5.15 ± 0.4 h
- total protein half-life in vivo [10]: 9.41 ± 0.68 h
- total protein half-life in vivo [11]: 5.31 ± 0.06 h
- total protein half-life in vivo [12]: 11.8 ± 0.37 h

Sequence: MNDSEFHRLADQLWLTIEERLDDWDGDSDIDCEINGGVLTITFENGSKIIINRQEPLHQVWLATKQGGYHFDLKGDEWICDRSGETFWDLLEQAATQQAGETVSFR
- total protein half-life in vivo [1]: 5.94 ± 0.86 h
- total protein half-life in vivo [2]: 6.07 h
- total protein half-life in vivo [3]: 5.73 ± 0.14 h
- total protein half-life in vivo [4]: 5.77 ± 0.51 h
- total protein half-life in vivo [5]: 4.57 ± 1.3 h
- total protein half-life in vivo [6]: 2.95 ± 0.78 h
- total protein half-life in vivo [7]: 5.61 ± 1.6 h
- total protein half-life in vivo [8]: 9.5 h
- total protein half-life in vivo [9]: 5.34 ± 0.45 h
- total protein half-life in vivo [10]: 9.68 ± 0.16 h
- total protein half-life in vivo [11]: 5.67 ± 0.12 h
- total protein half-life in vivo [12]: 11 ± 0.23 h

Sequence: MKRWPVFPRSLRQLVMLAFLLILLPLLVLAWQAWQSLNALSDQAALVNRTTLIDARRSEAMTNAALEMERSYRQYCVLDDPTLAKVYQSQRKRYSEMLDAHAGVLPDDKLYQALRQDLHNLAQLQCNNSGPDAAAAARLEAFASANTEMVQATRTVVFSRGQQLQREIAERGQYFGWQSLVLFLVSLVMVLLFTRMIIGPVKNIERMINRLGEGRSLGNSVSFSGPSELRSVGQRILWLSERLSWLESQRHQFLRHLSHELKTPLASMREGTELLADQVVGPLTPEQKEVVSILDSSSRNLQKLIEQLLDYNRKQADSAVELENVELAPLVETVVSAHSLPARAKMMHTDVDLKATACLAEPMLLMSVLDNLYSNAVHYGAESGNICLRSSLHGARVYIDVINTGTPIPQEERAMIFEPFFQGSHQRKGAVKGSGLGLSIARDCIRRMQGELYLVDESGQDVCFRIELPSSKNTK
- total protein half-life in vivo [1]: 6.52 ± 0.67 h
- total protein half-life in vivo [2]: 6.72 ± 0.21 h
- total protein half-life in vivo [3]: 6.56 ± 0.21 h
- total protein half-life in vivo [4]: 6.41 ± 0.28 h
- total protein half-life in vivo [6]: 3.12 ± 0.098 h
- total protein half-life in vivo [8]: 10.8 ± 0.2 h
- total protein half-life in vivo [9]: 6.16 ± 0.12 h
- total protein half-life in vivo [10]: 13.1 ± 1 h
- total protein half-life in vivo [11]: 6.8109 ± 0.0031 h
- total protein half-life in vivo [12]: 12.6 ± 0.89 h

Sequence: MIKRNLPLMITIGVFVLGYLYCLTQFPGFASTRVICNILTDNAFLGIIAVGMTFVILSGGIDLSVGSVIAFTGVFLAKVIGDFGLSPLLAFPLVLVMGCAFGAFMGLLIDALKIPAFIITLAGMFFLRGVSYLVSEESIPINHPIYDTLSSLAWKIPGGGRLSAMGLLMLAVVVIGIFLAHRTRFGNQVYAIGGNATSANLMGISTRSTTIRIYMLSTGLATLAGIVFSIYTQAGYALAGVGVELDAIASVVIGGTLLSGGVGTVLGTLFGVAIQGLIQTYINFDGTLSSWWTKIAIGILLFIFIALQRGLTVLWENRQSSPVTRVNIAQQ
- total protein half-life in vivo [6]: 3.66 h
- total protein half-life in vivo [7]: 6.05 h

Sequence: MSEPLLIARTPDTELFLLPGMANRHGLITGATGTGKTVTLQKLAESLSEIGVPVFMADVKGDLTGVAQAGTVSEKLLARLKNIGVNDWQPHANPVVVWDIFGEKGHPVRATVSDLGPLLLARLLNLNDVQSGVLNIIFRIADDQGLLLLDFKDLRAITQYIGDNAKSFQNQYGNISSASVGAIQRGLLSLEQQGAAHFFGEPMLDIKDWMRTDANGKGVINILSAEKLYQMPKLYAASLLWMLSELYEQLPEAGDLEKPKLVFFFDEAHLLFNDAPQVLLDKIEQVIRLIRSKGVGVWFVSQNPSDIPDNVLGQLGNRVQHALRAFTPKDQKAVKAAAQTMRANPAFDTEKAIQELGTGEALISFLDAKGSPSVVERAMVIAPCSRMGPVTEDERNGLINHSPVYGKYEDEVDRESAYEMLQKGFQASTEQQNNPPAKGKEVAVDDGILGGLKDILFGTTGPRGGKKDGVVQTMAKSAARQVTNQIVRGMLGSLLGGRRR
- total protein half-life in vivo [1]: 5.04 ± 0.57 h
- total protein half-life in vivo [2]: 4.98 ± 0.19 h
- total protein half-life in vivo [3]: 5.1 ± 0.27 h
- total protein half-life in vivo [4]: 5.07 ± 0.26 h
- total protein half-life in vivo [5]: 4.73 ± 0.25 h
- total protein half-life in vivo [6]: 3.263 ± 0.025 h
- total protein half-life in vivo [7]: 5.39 ± 0.34 h
- total protein half-life in vivo [8]: 9.77 ± 0.81 h
- total protein half-life in vivo [9]: 4.77 ± 0.15 h
- total protein half-life in vivo [10]: 8.27 ± 0.62 h
- total protein half-life in vivo [11]: 5.66 ± 0.28 h
- total protein half-life in vivo [12]: 9.88 ± 0.78 h
